Among the data in publication PMC11333492 are percent of parent and percent dimers values, retold here.

Assay [1] deals with B/Memphis/13/2003 FluPol PA-NENF332-335AAAA (PB2, PA mutant, PB1-luc2). Particulars: parent: est. 100; read off a plot.
In assay [2] the target is FluPolB (influenza B/Memphis/13/2003 polymerase heterotrimer) (influenza B/Memphis/13/2003) (UniProt Q5V8Z9). Description: mass photometry.
Assay [3] deals with B/Memphis/13/2003 FluPol PA-NE332-333AA (PB2, PA mutant, PB1-luc2). Particulars: parent: est. 100; read off a plot.
Assay [4] has as its target B/Memphis/13/2003 FluPol PA-NY360-361AA (PB2, PA mutant, PB1-luc2). The note with it: parent: est. 100; read off a plot.

Regarding “B/Memphis/13/2003 FluPol wild type (PB2, PA, PB1-luc1) for the split luciferase assays (from UniProt Q5V8Z9;Q5V8Y6;Q5V8X3) PA:N332A; PA:E333A; PA:N334A; PA:F335A”, the percent of parent in assay [1] stood at 9 % FluPol-WT. Regarding “FluPolB (influenza B/Memphis/13/2003 polymerase heterotrimer) (from UniProt Q5V8Z9;Q5V8Y6;Q5V8X3) (complex)”, the percent dimers in assay [2] is 14%.

As for “B/Memphis/13/2003 FluPol wild type (PB2, PA, PB1-luc1) for the split luciferase assays (from UniProt Q5V8Z9;Q5V8Y6;Q5V8X3) PA:N332A; PA:E333A”, the percent of parent in assay [3] stood at 33 % FluPol-WT. In the case of “B/Memphis/13/2003 FluPol wild type (PB2, PA, PB1-luc1) for the split luciferase assays (from UniProt Q5V8Z9;Q5V8Y6;Q5V8X3) PA:N360A; PA:Y361A”, the percent of parent in assay [4] worked out at 6 % FluPol-WT.
